In this assay the target is Omicron BA.1 spike RBD (UniProt P0DTC2) (SARS-CoV-2) (UniProt P0DTC2). As to the kind of experiment: microfluidic diffusional sizing (MDS).

These results are taken from article PMC9672333.

On to Casirivimab (antibody), for which the fold reduction of binding affinity relative to wild type RBD is over 100 fold.
Take Cilgavimab Biosimilar (antibody): the fold reduction of binding affinity relative to wild type RBD was over 100 fold.
In the case of Tixagevimab Biosimilar (antibody) it was over 100 fold.
